From paper PMC10530651, “Mechanisms of Regulation of the CHRDL1 Gene by the TWIST2 and ADD1/SREBP1c Transcription Factors” come the findings set out here.

Data set [1] addresses T1, TWIST2 Q119X (Homo sapiens, UniProt Q8WVJ9 1-118).
T1 sequence: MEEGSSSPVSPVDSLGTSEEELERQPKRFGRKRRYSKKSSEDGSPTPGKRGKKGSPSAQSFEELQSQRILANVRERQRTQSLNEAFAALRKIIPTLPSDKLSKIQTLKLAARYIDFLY
Description: EMSA; EMSA: 20 mM HEPES pH 7.9, 60 mM KCl, 1 mM MgCl2, 0.5 mM DTT, 10% glycerol, 10 µL with 1-3 µL TnT lysate; competitor at least 50x molar excess; 6% native gel, 0.5X TBE, 4 °C; binding temperature not stated. To be noted: protein: ivt; tags: Myc; chain copies: 2; label: 32P as probe; blunt. Background: A gel shift assay detects complexes by their altered migration in electrophoresis.

The target in data set [2] is T1, TWIST2 Q119X. The data set is described as follows: EMSA; homodimer; EMSA: 20 mM HEPES pH 7.9, 60 mM KCl, 1 mM MgCl2, 0.5 mM DTT, 10% glycerol, 10 µL with 1-3 µL TnT lysate; competitor at least 50x molar excess; 6% native gel, 0.5X TBE, 4 °C; binding temperature not stated. To be noted: protein: ivt; tags: Myc; chain copies: 2; label: 32P as probe; blunt.

B1: CH2600TWI (dsDNA)
DNA 1: TATATACACAGGCAAATGAGTGCATATAAA
DNA 2: TTTATATGCACTCATTTGCCTGTGTATATA
B1: the binding result in the data set with TWIST2 Q119X [1] was “no binding”.

B2: CH2700EA (dsDNA)
DNA 1: TGGTGGTGGTCACATGAATATACACATGCGATAAAATT
DNA 2: AATTTTATCGCATGTGTATATTCATGTGACCACCACCA
On to B2, for which the binding result with TWIST2 Q119X [2] is listed as “no binding”.
